# Laboratory results as given in patent US20230416410A1.
# What was measured:
# [1] = molecular target: recombinant bovine FcRn (bovine) (UniProt F6R592); assay: SPR Biacore, bFcRn on SA sensor, pH 6, 25 C
# [2] = molecular target: recombinant bovine Fcg2R (bovine); assay: SPR Biacore, bFcg2R amine-coupled on CM5; against bIgG2a wildtype mAb
# [3] = molecular target: recombinant bovine Fcg2R (bovine); assay: SPR Biacore, bFcg2R amine-coupled on CM5, pH 7.4, 15 C
# [4] = molecular target: recombinant bovine FcRn (bovine) (UniProt F6R592); assay: SPR Biacore, bFcRn, pH 6; against bIgG3a wildtype mAb
# Sequence of recombinant bovine FcRn (bovine) (chain, as listed by the source, chain 1 of 2): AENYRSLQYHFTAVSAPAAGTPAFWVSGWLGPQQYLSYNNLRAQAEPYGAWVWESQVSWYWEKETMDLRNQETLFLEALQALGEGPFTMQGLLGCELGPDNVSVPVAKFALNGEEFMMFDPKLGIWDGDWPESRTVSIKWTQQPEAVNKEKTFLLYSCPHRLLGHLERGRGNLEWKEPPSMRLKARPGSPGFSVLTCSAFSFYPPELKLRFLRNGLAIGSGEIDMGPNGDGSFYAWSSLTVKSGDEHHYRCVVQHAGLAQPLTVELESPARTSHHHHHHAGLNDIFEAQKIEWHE
# Sequence of recombinant bovine FcRn (bovine) (P01888 21-118, chain 2 of 2): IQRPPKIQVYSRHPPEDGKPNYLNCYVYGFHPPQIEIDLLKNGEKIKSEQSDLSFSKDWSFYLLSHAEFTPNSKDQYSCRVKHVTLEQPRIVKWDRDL
# Sequence of recombinant bovine Fcg2R (bovine) (main, as listed by the source): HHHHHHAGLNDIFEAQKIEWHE
Binder,Kd [1],also measured
"bIgG2a_L432A mAb (antibody, part only; not given: variable domains, not shown: another chain or arm of the molecule) constant: ASTTAPKVYPLTSCCGDKSSSRVTLGCLVSSYMPEPVTVTWNSGALKSGVHTFPAVLQSSGLYSLSSMVTVPGSSSGQTFTCNVAHPASSTKVDKAVGVSSDCSKPNNQHCVREPSVFIFPPKPKDTLMITGTPEVTCVVVNVGHDNPEVQFSWFVDDVEVHTARTKPREEQFNSTYRVVSALPIQHQDWTGGKEFKCKVNIKGLSASIVRIISRSKGPAREPQVYVLDPPKEELSKSTVSVTCMVIGFYPEDVDVEWQRDRQTESEDKYRTTPPQLDADRSYFLYSKLRVDRNSWQRGDTYTCVVMHEAAHNHYMQKSTSKSAGK",0.579 nM,
"bIgG2a_N434A mAb (antibody, part only; not given: variable domains, not shown: another chain or arm of the molecule) constant: ASTTAPKVYPLTSCCGDKSSSRVTLGCLVSSYMPEPVTVTWNSGALKSGVHTFPAVLQSSGLYSLSSMVTVPGSSSGQTFTCNVAHPASSTKVDKAVGVSSDCSKPNNQHCVREPSVFIFPPKPKDTLMITGTPEVTCVVVNVGHDNPEVQFSWFVDDVEVHTARTKPREEQFNSTYRVVSALPIQHQDWTGGKEFKCKVNIKGLSASIVRIISRSKGPAREPQVYVLDPPKEELSKSTVSVTCMVIGFYPEDVDVEWQRDRQTESEDKYRTTPPQLDADRSYFLYSKLRVDRNSWQRGDTYTCVVMHEALHAHYMQKSTSKSAGK",1.04 nM,
"bIgG2a_M437A mAb (antibody, part only; not given: variable domains, not shown: another chain or arm of the molecule) constant: ASTTAPKVYPLTSCCGDKSSSRVTLGCLVSSYMPEPVTVTWNSGALKSGVHTFPAVLQSSGLYSLSSMVTVPGSSSGQTFTCNVAHPASSTKVDKAVGVSSDCSKPNNQHCVREPSVFIFPPKPKDTLMITGTPEVTCVVVNVGHDNPEVQFSWFVDDVEVHTARTKPREEQFNSTYRVVSALPIQHQDWTGGKEFKCKVNIKGLSASIVRIISRSKGPAREPQVYVLDPPKEELSKSTVSVTCMVIGFYPEDVDVEWQRDRQTESEDKYRTTPPQLDADRSYFLYSKLRVDRNSWQRGDTYTCVVMHEALHNHYAQKSTSKSAGK",0.59 nM,
"bIgG2a_L432A_N434A mAb (antibody, part only; not given: variable domains, not shown: another chain or arm of the molecule) constant: ASTTAPKVYPLTSCCGDKSSSRVTLGCLVSSYMPEPVTVTWNSGALKSGVHTFPAVLQSSGLYSLSSMVTVPGSSSGQTFTCNVAHPASSTKVDKAVGVSSDCSKPNNQHCVREPSVFIFPPKPKDTLMITGTPEVTCVVVNVGHDNPEVQFSWFVDDVEVHTARTKPREEQFNSTYRVVSALPIQHQDWTGGKEFKCKVNIKGLSASIVRIISRSKGPAREPQVYVLDPPKEELSKSTVSVTCMVIGFYPEDVDVEWQRDRQTESEDKYRTTPPQLDADRSYFLYSKLRVDRNSWQRGDTYTCVVMHEAAHAHYMQKSTSKSAGK",1.7 nM,Fcg2R KD reduction from WT [2]: 4 fold; Kd [3]: 59.3 nM
"bIgG2a_L432A_M437A mAb (antibody, part only; not given: variable domains, not shown: another chain or arm of the molecule) constant: ASTTAPKVYPLTSCCGDKSSSRVTLGCLVSSYMPEPVTVTWNSGALKSGVHTFPAVLQSSGLYSLSSMVTVPGSSSGQTFTCNVAHPASSTKVDKAVGVSSDCSKPNNQHCVREPSVFIFPPKPKDTLMITGTPEVTCVVVNVGHDNPEVQFSWFVDDVEVHTARTKPREEQFNSTYRVVSALPIQHQDWTGGKEFKCKVNIKGLSASIVRIISRSKGPAREPQVYVLDPPKEELSKSTVSVTCMVIGFYPEDVDVEWQRDRQTESEDKYRTTPPQLDADRSYFLYSKLRVDRNSWQRGDTYTCVVMHEAAHNHYAQKSTSKSAGK",3.03 nM,
"bIgG2a_N434A_M437A mAb (antibody, part only; not given: variable domains, not shown: another chain or arm of the molecule) constant: ASTTAPKVYPLTSCCGDKSSSRVTLGCLVSSYMPEPVTVTWNSGALKSGVHTFPAVLQSSGLYSLSSMVTVPGSSSGQTFTCNVAHPASSTKVDKAVGVSSDCSKPNNQHCVREPSVFIFPPKPKDTLMITGTPEVTCVVVNVGHDNPEVQFSWFVDDVEVHTARTKPREEQFNSTYRVVSALPIQHQDWTGGKEFKCKVNIKGLSASIVRIISRSKGPAREPQVYVLDPPKEELSKSTVSVTCMVIGFYPEDVDVEWQRDRQTESEDKYRTTPPQLDADRSYFLYSKLRVDRNSWQRGDTYTCVVMHEALHAHYAQKSTSKSAGK",2.31 nM,
"bIgG2a_L432A_N434A_M437A mAb (antibody, part only; not given: variable domains, not shown: another chain or arm of the molecule) constant: ASTTAPKVYPLTSCCGDKSSSRVTLGCLVSSYMPEPVTVTWNSGALKSGVHTFPAVLQSSGLYSLSSMVTVPGSSSGQTFTCNVAHPASSTKVDKAVGVSSDCSKPNNQHCVREPSVFIFPPKPKDTLMITGTPEVTCVVVNVGHDNPEVQFSWFVDDVEVHTARTKPREEQFNSTYRVVSALPIQHQDWTGGKEFKCKVNIKGLSASIVRIISRSKGPAREPQVYVLDPPKEELSKSTVSVTCMVIGFYPEDVDVEWQRDRQTESEDKYRTTPPQLDADRSYFLYSKLRVDRNSWQRGDTYTCVVMHEAAHAHYAQKSTSKSAGK",6.96 nM,
"bIgG1a mAb (antibody, part only; not given: variable domains, not shown: another chain or arm of the molecule) constant: ASTTAPKVYPLSSCCGDKSSSTVTLGCLVSSYMPEPVTVTWNSGALKSGVHTFPAVLQSSGLYSLSSMVTVPGSTSGTQTFTCNVAHPASSTKVDKAVDPRCKTTCDCCPPPELPGGPSVFIFPPKPKDTLTISGTPEVTCVVVDVGHDDPEVKFSWFVDDVEVNTATTKPREEQFNSTYRVVSALRIQHQDWTGGKEFKCKVHNEGLPAPIVRTISRTKGPAREPQVYVLAPPQEELSKSTVSLTCMVTSFYPDYIAVEWQRNGQPESEDKYGTTPPQLDADGSYFLYSRLRVDRNSWQEGDTYTCVVMHEALHNHYTQKSTSKSAGK",31.4 nM,
"bIgG3a wildtype mAb (antibody, part only; not given: variable domains, not shown: another chain or arm of the molecule) constant: ASTTAPKVYPLASSCGDTSSSTVTLGCLVSSYMPEPVTVTWNSGALKSGVHTFPAVRQSSGLYSLSSMVTVPASSSETQTFTCNVAHPASSTKVDKAVTARRPVPTTPKTTIPPGKPTTPKSEVEKTPCQCSKCPEPLGGLSVFIFPPKPKDTLTISGTPEVTCVVVDVGQDDPEVQFSWFVDDVEVHTARTKPREEQFNSTYRVVSALRIQHQDWLQGKEFKCKVNNKGLPAPIVRTISRTKGQAREPQVYVLAPPREELSKSTLSLTCLITGFYPEEIDVEWQRNGQPESEDKYHTTAPQLDADGSYFLYSKLRVNKSSWQEGDHYTCAVMHEALRNHYKEKSISRSPGK",30.2 nM,
"bIgG3a_R433H mutant mAb (antibody, part only; not given: variable domains, not shown: another chain or arm of the molecule) constant: ASTTAPKVYPLASSCGDTSSSTVTLGCLVSSYMPEPVTVTWNSGALKSGVHTFPAVRQSSGLYSLSSMVTVPASSSETQTFTCNVAHPASSTKVDKAVTARRPVPTTPKTTIPPGKPTTPKSEVEKTPCQCSKCPEPLGGLSVFIFPPKPKDTLTISGTPEVTCVVVDVGQDDPEVQFSWFVDDVEVHTARTKPREEQFNSTYRVVSALRIQHQDWLQGKEFKCKVNNKGLPAPIVRTISRTKGQAREPQVYVLAPPREELSKSTLSLTCLITGFYPEEIDVEWQRNGQPESEDKYHTTAPQLDADGSYFLYSKLRVNKSSWQEGDHYTCAVMHEALHNHYKEKSISRSPGK",9.14 nM,fold higher affinity than bIgG3a wildtype [4]: 5 fold
